Measured values: US11464867B2, “Multimeric elastin-like polypeptides” (University of Southern California, priority 2018, dated 2022)
Values joined by “and” are separate entries in the source; they are usually repeats but may differ in a detail not shown here. Equal entries are not always repeated. “Also recorded” adds a separate entry of the source.

Columns and labels:
[1] = Phase transition temperature by optical density (UV-Vis, 350 nm) versus temperature; type: physicochemical; details: mean ± 95% CI, Table 2
Procedure: The temperature with the maximum positive slope was defined as the phase transition temperature for each condition. (FIG. 2B) The concentration-temperature phase diagram was determined for both ELPs, and fit to the following equation: Tt=b−m Log10[CELP].
Both ELPs at different concentrations (5 μM to 100 μM) were subject to a precisely controlled temperature increase from 25 to 75° C. at a rate of 1° C./min. The Tt of ELPs is defined as the temperature at which the first derivative of the optical density with respect to the temperature reaches a maximum.

[2] = test system: HeLa cells; assay: HeLa cell uptake, co-localization with lysosomes (confocal microscopy); type: cell-based; details: 30 μM rhodamine-labeled ELP; 120 min; LysoTracker Green
Procedure: Lysosomes were labeled by LysoTracker Green® having the structure:
In order to further validate the potential efficacy of CA192 working as a potent drug binding domain, an in vitro cell uptake study was performed. Briefly, CA192 and A192 was labeled with rhodamine and HeLa cell lysosome with LysoTracker Green (LTG)® having the structure as described herein. For the treatment group, HeLa cells were incubated with 30 μM of rhodamine-labeled (rh)-CA192 and 70 nM of LTG for 120 min. For the control group, HeLa cells were incubated with 30 μM of rhodamine-labeled (rh)-A192 and 70 nM of LTG for 120 min. Cells were then rinsed with warm HBSS three times, maintained in the fresh culture medium, and imaged by confocal microscopy. Images were acquired using a Zeiss laser scanning microscope 510 Meta NLO confocal imaging system equipped with Argon, red HeNe, green HeNe laser, and a Coherent Chameleon Ti-Sapphire laser (LSM) mounted on a vibration-free table (Carl Zeiss, Thornwood, N.Y.). All images were acquired using a Plan-Apochromat 63× Oil immersion lens with a working distance of 0.19 mm.

[3] = Dynamic light scattering (DLS) hydrodynamic radius and stability; type: physicochemical; details: DLS intensity; 20 μM
Procedure: FIGS. 5A-5D: CA192 (SEQ ID NO: 3) has a good stability in terms of hydrodynamic radius. There are two fractions present in the CA192 (SEQ ID NO: 3) solution: an aggregated form and dimeric form. A dimerized form has similar hydrodynamic radius, Rh as A192. […] Drug-loaded CA192 (SEQ ID NO: 3) has a mean Rh of 64.5±0.5 nm (p<0.05). […] (FIG. 5C) Size Exclusion Chromatography (SEC) was conducted to fractionate CA192 (SEQ ID NO: 3) depending on their particle size. Two fractions were observed. […] In contrast, the fraction 1 contains a mixture of larger aggregates.
The hydrodynamic radius (Rh) of both the loaded and unloaded fusion protein, along with plain A192, was measured via dynamic light scattering (DLS) using a DynaPro Plate Reader II from Wyatt Technology. Before the DLS measurement, solutions were filtered through […] pore size filters. The concentration of each solution was then adjusted to 20 μM. 60 μL from each sample was pipetted into three different wells on the plate reader and covered by 15 μL mineral oil each to avoid solvent evaporation. […] Briefly, the fusion solution was incubated at 37° C. for different periods of time up to 48 h and the mean Rh of CA192 at these different time points was measured with DLS. […] (FIG. 5D) Through measuring the CA192 concentration of both fractions, Applicants determined that 20.8% by mass in solution is represented by the multimerized particles. […]

[4] = ATRA encapsulation in 4PA, two phase method, HPLC; type: physicochemical; details: control ELP
From the text: FIG. 21: SDS PAGE was used to resolve the purified 4PA fusion protein. To formulate ATRA-loaded 4PA, a two phase encapsulation method was adopted. After removing undissolved drug, HPLC was used to quantify 4PA and ATRA concentrations. Encapsulation ratio, defined as CATRA/C4PA was 2.7, theoretical maximum being 4.

B1: (VPGAG)192 (protein)
chain: VPGAGVPGAGVPGAGVPGAGVPGAGVPGAGVPGAGVPGAGVPGAGVPGAGVPGAGVPGAGVPGAGVPGAGVPGAGVPGAGVPGAGVPGAGVPGAGVPGAGVPGAGVPGAGVPGAGVPGAGVPGAGVPGAGVPGAGVPGAGVPGAGVPGAGVPGAGVPGAGVPGAGVPGAGVPGAGVPGAGVPGAGVPGAGVPGAGVPGAGVPGAGVPGAGVPGAGVPGAGVPGAGVPGAGVPGAGVPGAGVPGAGVPGAGVPGAGVPGAGVPGAGVPGAGVPGAGVPGAGVPGAGVPGAGVPGAGVPGAGVPGAGVPGAGVPGAGVPGAGVPGAGVPGAGVPGAGVPGAGVPGAGVPGAGVPGAGVPGAGVPGAGVPGAGVPGAGVPGAGVPGAGVPGAGVPGAGVPGAGVPGAGVPGAGVPGAGVPGAGVPGAGVPGAGVPGAGVPGAGVPGAGVPGAGVPGAGVPGAGVPGAGVPGAGVPGAGVPGAGVPGAGVPGAGVPGAGVPGAGVPGAGVPGAGVPGAGVPGAGVPGAGVPGAGVPGAGVPGAGVPGAGVPGAGVPGAGVPGAGVPGAGVPGAGVPGAGVPGAGVPGAGVPGAGVPGAGVPGAGVPGAGVPGAGVPGAGVPGAGVPGAGVPGAGVPGAGVPGAGVPGAGVPGAGVPGAGVPGAGVPGAGVPGAGVPGAGVPGAGVPGAGVPGAGVPGAGVPGAGVPGAGVPGAGVPGAGVPGAGVPGAGVPGAGVPGAGVPGAGVPGAGVPGAGVPGAGVPGAGVPGAGVPGAGVPGAGVPGAGVPGAGVPGAGVPGAGVPGAGVPGAGVPGAGVPGAGVPGAGVPGAGVPGAGVPGAGVPGAGVPGAGVPGAGVPGAGVPGAGVPGAGVPGAGVPGAGVPGAGVPGAGVPGAGVPGAGVPGAGVPGAGVPGAGVPGAGVPGAGVPGAGVPGAGVPGAGVPGAGVPGAGVPGAGVPGAGVPGAG
In the case of B1, the “Slope, m” value ([1]; fit Tt = b - m Log10[CELP]) is reported as 8.3 ± 0.28 ° C./Log10(μM), the “Intercept, b” value ([1]; intercept at 1 μM) is reported as 72.3 ± 0.41 °C and the co-localization with lysosomes [2] is reported as “obvious co-localization with lysosome; also recorded: co-localized with lysosomes; also recorded: co-localizing with lysosomes”. The “mean hydrodynamic radius (Rh)” value [3] was 7.3±0.6 nm and 7.3±0.4 nm and the “ATRA peak on HPLC after encapsulation” value [4] was “not detectable”.
